Measurements reported in paper PMC8396674.

How the values were obtained:
Assay in all cases: AUC; sedimentation velocity, 0.25 mg/mL (14.7 µM) protein with 7-fold molar excess of TbCl3, 20 °C, 50,000 rpm, c(s) analysis
[1] = target: gC1q domain of human otolin-1 (hOtolC1q), wild type (human)
[2] = target: gC1q domain of human otolin-1, natural variant Q426R (human)
[3] = target: gC1q domain of human otolin-1, natural variant R339S (human)

“gC1q domain of human otolin-1 (hOtolC1q), wild type (domain or fragment)” showed a stoichiometry N [1] of 3.

With “gC1q domain of human otolin-1, natural variant Q426R (domain or fragment)” the stoichiometry N [2] was 3.

With “gC1q domain of human otolin-1, natural variant R339S (domain or fragment)” the stoichiometry N [3] was 3.
